{
  "source": "IntAct's records for PubMed 35512704",
  "parents": {"B1": {"name": "Mothers against decapentaplegic homolog 4 (Homo sapiens), Q13485 (parent)", "chain": "MDNMSITNTPTSNDACLSIVHSLMCHRQGGESETFAKRAIESLVKKLKEKKDELDSLITAITTNGAHPSKCVTIQRTLDGRLQVAGRKGFPHVIYARLWRWPDLHKNELKHVKYCQYAFDLKCDSVCVNPYHYERVVSPGIDLSGLTLQSNAPSSMMVKDEYVHDFEGQPSLSTEGHSIQTIQHPPSNRASTETYSTPALLAPSESNATSTANFPNIPVASTSQPASILGGSHSEGLLQIASGPQPGQQQNGFTGQPATYHHNSTTTWTGSRTAPYTPNLPHHQNGHLQHHPPMPPHPGHYWPVHNELAFQPPISNHPAPEYWCSIAYFEMDVQVGETFKVPSSCPIVTVDGYVDPSGGDRFCLGQLSNVHRTEAIERARLHIGKGVQLECKGEGDVWVRCLSDHAVFVQSYYLDREAGRAPGDAVHKIYPSAYIKVFDLRQCHRQMQQQAATAQAAAAAQAAAVAGNIPGPGSVGGIAPAISLSAAAGIGVDDLRRLCILRMSFVKGWGPDYPRQSIKETPCWIEIHLHRALQLLDEVLHTMPIADPQPLD"}},
  "data": [
    {"variants_of": "B1", "settings": "with vgfr2_human KDR", "values": [
      {"variant": "G386D", "effect of a mutation on the interaction": "with no effect"}
    ]},
    {"variants_of": "B1", "settings": "with keap1_human KEAP1, Q14145", "values": [
      {"variant": "G386D", "effect of a mutation on the interaction": "with no effect"}
    ]},
    {"variants_of": "B1", "settings": "with klf4_human KLF4, O43474", "values": [
      {"variant": "G386D", "effect of a mutation on the interaction": "with no effect"}
    ]},
    {"variants_of": "B1", "settings": "with lims1_human LIMS1, P48059", "values": [
      {"variant": "G386D", "effect of a mutation on the interaction": "with no effect"}
    ]},
    {"variants_of": "B1", "settings": "with maga6_human MAGEA6, P43360", "values": [
      {"variant": "G386D", "effect of a mutation on the interaction": "with no effect"}
    ]},
    {"variants_of": "B1", "settings": "with mp2k7_human MAP2K7, O14733", "values": [
      {"variant": "G386D", "effect of a mutation on the interaction": "with no effect"}
    ]},
    {"variants_of": "B1", "settings": "with m3k1_human MAP3K1, Q13233", "values": [
      {"variant": "G386D", "effect of a mutation on the interaction": "with no effect"}
    ]},
    {"variants_of": "B1", "settings": "with m3k5_human MAP3K5, Q99683", "values": [
      {"variant": "G386D", "effect of a mutation on the interaction": "with no effect"}
    ]},
    {"variants_of": "B1", "settings": "with mk10_human MAPK10, P53779", "values": [
      {"variant": "G386D", "effect of a mutation on the interaction": "with no effect"}
    ]},
    {"variants_of": "B1", "settings": "with mk14_human MAPK14, Q16539", "values": [
      {"variant": "G386D", "effect of a mutation on the interaction": "with no effect"}
    ]},
    {"variants_of": "B1", "settings": "with mk03_human MAPK3, P27361", "values": [
      {"variant": "G386D", "effect of a mutation on the interaction": "with no effect"}
    ]},
    {"variants_of": "B1", "settings": "with mk04_human MAPK4, P31152", "values": [
      {"variant": "G386D", "effect of a mutation on the interaction": "with no effect"}
    ]},
    {"variants_of": "B1", "settings": "with mk06_human MAPK6, Q16659", "values": [
      {"variant": "G386D", "effect of a mutation on the interaction": "with no effect"}
    ]},
    {"variants_of": "B1", "settings": "with mk07_human MAPK7, Q13164", "values": [
      {"variant": "G386D", "effect of a mutation on the interaction": "with no effect"}
    ]},
    {"variants_of": "B1", "settings": "with mcl1_human MCL1, Q07820", "values": [
      {"variant": "G386D", "effect of a mutation on the interaction": "with no effect"}
    ]},
    {"variants_of": "B1", "settings": "with mitf_human MITF", "values": [
      {"variant": "G386D", "effect of a mutation on the interaction": "with no effect"}
    ]},
    {"variants_of": "B1", "settings": "with mtor_human MTOR", "values": [
      {"variant": "G386D", "effect of a mutation on the interaction": "with no effect"}
    ]},
    {"variants_of": "B1", "settings": "with myc_human MYC", "values": [
      {"variant": "G386D", "effect of a mutation on the interaction": "with no effect"}
    ]},
    {"variants_of": "B1", "settings": "with nf1_human NF1, P21359", "values": [
      {"variant": "G386D", "effect of a mutation on the interaction": "with no effect"}
    ]},
    {"variants_of": "B1", "settings": "with merl_human NF2, P35240", "values": [
      {"variant": "G386D", "effect of a mutation on the interaction": "with no effect"}
    ]},
    {"variants_of": "B1", "settings": "with nfic_human NFIC", "values": [
      {"variant": "G386D", "effect of a mutation on the interaction": "with no effect"}
    ]},
    {"variants_of": "B1", "settings": "with ikba_human NFKBIA", "values": [
      {"variant": "G386D", "effect of a mutation on the interaction": "with no effect"}
    ]},
    {"variants_of": "B1", "settings": "with notc2_human NOTCH2, Q04721", "values": [
      {"variant": "G386D", "effect of a mutation on the interaction": "with no effect"}
    ]},
    {"variants_of": "B1", "settings": "with nox1_human NOX1, Q9Y5S8", "values": [
      {"variant": "G386D", "effect of a mutation on the interaction": "with no effect"}
    ]},
    {"variants_of": "B1", "settings": "with ntrk2_human NTRK2, Q16620", "values": [
      {"variant": "G386D", "effect of a mutation on the interaction": "with no effect"}
    ]},
    {"variants_of": "B1", "settings": "with pak3_human PAK3, O75914", "values": [
      {"variant": "G386D", "effect of a mutation on the interaction": "with no effect"}
    ]},
    {"variants_of": "B1", "settings": "with prkn_human PRKN", "values": [
      {"variant": "G386D", "effect of a mutation on the interaction": "with no effect"}
    ]},
    {"variants_of": "B1", "settings": "with pax5_human PAX5, Q02548", "values": [
      {"variant": "G386D", "effect of a mutation on the interaction": "with no effect"}
    ]},
    {"variants_of": "B1", "settings": "with pax9_human PAX9, P55771", "values": [
      {"variant": "G386D", "effect of a mutation on the interaction": "with no effect"}
    ]},
    {"variants_of": "B1", "settings": "with pb1_human PBRM1, Q86U86", "values": [
      {"variant": "G386D", "effect of a mutation on the interaction": "with no effect"}
    ]},
    {"variants_of": "B1", "settings": "with pcbp1_human PCBP1, Q15365", "values": [
      {"variant": "G386D", "effect of a mutation on the interaction": "with no effect"}
    ]},
    {"variants_of": "B1", "settings": "with pgfra_human PDGFRA", "values": [
      {"variant": "G386D", "effect of a mutation on the interaction": "with no effect"}
    ]},
    {"variants_of": "B1", "settings": "with pgfrb_human PDGFRB", "values": [
      {"variant": "G386D", "effect of a mutation on the interaction": "with no effect"}
    ]},
    {"variants_of": "B1", "settings": "with pdk1_human PDK1, Q15118", "values": [
      {"variant": "G386D", "effect of a mutation on the interaction": "with no effect"}
    ]},
    {"variants_of": "B1", "settings": "with PIK3C2B", "values": [
      {"variant": "G386D", "effect of a mutation on the interaction": "with no effect"}
    ]},
    {"variants_of": "B1", "settings": "with pk3c3_human PIK3C3, Q8NEB9", "values": [
      {"variant": "G386D", "effect of a mutation on the interaction": "with no effect"}
    ]},
    {"variants_of": "B1", "settings": "with pk3ca_human PIK3CA", "values": [
      {"variant": "G386D", "effect of a mutation on the interaction": "with no effect"}
    ]},
    {"variants_of": "B1", "settings": "with pk3cb_human PIK3CB", "values": [
      {"variant": "G386D", "effect of a mutation on the interaction": "with no effect"}
    ]},
    {"variants_of": "B1", "settings": "with pk3cg_human PIK3CG", "values": [
      {"variant": "G386D", "effect of a mutation on the interaction": "with no effect"}
    ]},
    {"variants_of": "B1", "settings": "with p85a_human PIK3R1, P27986", "values": [
      {"variant": "G386D", "effect of a mutation on the interaction": "with no effect"}
    ]}
  ]
}
